Legend:
PSMA Fab [1] = molecular target: T1, PSMA Fab (biotinylated (site not stated)); test: clonal phage ELISA on captured PSMA Fab pre-incubated with PSMA antigen as competitor, anti-M13 HRP detection;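 also: crude clonal phage supernatants tested by ELISA, wells first treated with blocking buffer plus PSMA antigen, bound phage read out via HRP-linked anti-M13 antibody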
T1 construct: Biotinylated PSMA Fab captured on neutravidin plates for the clonal phage ELISA; also called Anti-PSMA Fab; 006 PSMA Fab

PSMA Fab [2] = molecular target: T1, PSMA Fab; test: clonal phage ELISA on biotinylated PSMA Fab captured on neutravidin, blocking buffer alone, anti-M13 HRP detection;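 also: clonal phage were tested as crude supernatants, and the signal reflects phage still bound to the wells after washing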
Protocol: (§1) Clonal phage were harvested as crude supernatants and screened via standard ELISAs. […] Prior to the addition of clonal phage. wells were incubated with blocking buffer and PSMA antigen or blocking buffer alone. Without washing or aspirating, clonal phage supernatants were then added to the wells and incubated for a short time. Wells were then washed followed by detection of bound phage using a horse radish conjugated anti-M13 antibody.

006 PSMA Fab [3] = molecular target: T2, 006 PSMA Fab; test: clonal phage ELISA; biotinylated PSMA Fab captured on neutravidin plate, wells pre-incubated with PSMA antigen as competitor; bound phage detected with anti-M13 HRP
T2 construct: In the phage ELISA the PSMA Fab was biotinylated and captured on neutravidin coated plates; also called Anti-PSMA Fab
Protocol: as §1

006 PSMA Fab [4] = molecular target: T2, 006 PSMA Fab; test: clonal phage ELISA; biotinylated PSMA Fab captured on neutravidin plate, blocking buffer alone; bound phage detected with anti-M13 HRP
Protocol: as §1

Anti-PSMA Fab [5] = molecular target: T3, Anti-PSMA Fab (biotinylated (site not stated)); test: clonal phage ELISA on plate-captured biotinylated PSMA Fab, wells pre-incubated with PSMA antigen as competitor
T3 construct: Biotinylated PSMA Fab captured on neutravidin coated plates; also called 006 PSMA Fab

Anti-PSMA Fab [6] = molecular target: T3, Anti-PSMA Fab; test: clonal phage ELISA on plate-captured biotinylated PSMA Fab, blocking buffer alone
Protocol: as §1

PSMA Fab (006 PSMA Fab) = molecular target: T4, PSMA Fab (006 PSMA Fab); test: phage binding ELISA; biotinylated PSMA Fab on neutravidin plate, clonal phage supernatant, anti-M13 HRP detection;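 also: wells were preincubated with blocking buffer either containing PSMA antigen or without it before crude phage supernatant was added, briefly incubated, then washed prior to detection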
T4 construct: also called Anti-PSMA Fab; anti-PSMA Fab
Protocol: as §1

## SYMRCEPEWMCSGL [Phage-3970]
PSMA Fab [1]
  Phage binding ELISA signal, Anti-PSMA Fab in presence of PSMA antigen: 0.121
PSMA Fab [2]
  Phage binding ELISA signal, Anti-PSMA Fab: 0.786

## DSLVCQPRWMCVGF [Phage-3945]
006 PSMA Fab [3]
  Phage binding ELISA signal, Anti-PSMA Fab with PSMA antigen: 0.063
006 PSMA Fab [4]
  Phage binding ELISA signal, Anti-PSMA Fab: 0.895

B1: Phage-3964 (peptide)
peptide: ITRMCTPSWMCMSF
notes: tested as crude clonal phage supernatant
Anti-PSMA Fab [5]
  phage binding ELISA signal (Anti-PSMA Fab with PSMA): 0.078
Anti-PSMA Fab [6]
  Phage binding ELISA signal, Anti-PSMA Fab: 0.814

B2: Phage-3936 (Peptide-180 library clone) (peptide)
peptide: WVRLCQPAWMCTGL
notes: Tested as clonal phage supernatant; not shown: fused to the pIII filament protein of the bacteriophage
PSMA Fab (006 PSMA Fab)
  Phage binding ELISA signal, Anti-PSMA Fab: 0.926

B3: Phage-3955 (peptide)
peptide: YERVCVPSWMCNSL
notes: as for B1
Anti-PSMA Fab [5]
  phage binding ELISA signal (Anti-PSMA Fab with PSMA): 0.0845
Anti-PSMA Fab [6]
  Phage binding ELISA signal, Anti-PSMA Fab: 0.838

B4: Phage-3957 (peptide)
peptide: TIQWCEPLWMCRGF
notes: as for B1
Anti-PSMA Fab [5]
  phage binding ELISA signal (Anti-PSMA Fab with PSMA): 0.0643
Anti-PSMA Fab [6]
  Phage binding ELISA signal, Anti-PSMA Fab: 0.835

B5: Phage-3931 (Peptide-180 library clone) (peptide)
peptide: PTIMCIPVWMCQAF
notes: as for B2
PSMA Fab (006 PSMA Fab)
  Phage binding ELISA signal, Anti-PSMA Fab: 0.966

B6: Phage-3938 (Peptide-180 library clone) (peptide)
peptide: MQDFCKPLWMCSGF
notes: as for B2
PSMA Fab (006 PSMA Fab)
  Phage binding ELISA signal, Anti-PSMA Fab: 0.921

## DQVMCIPRWMCEGF [Phage-3943]
006 PSMA Fab [3]
  Phage binding ELISA signal, Anti-PSMA Fab with PSMA antigen: 0.0676
006 PSMA Fab [4]
  Phage binding ELISA signal, Anti-PSMA Fab: 0.904

## AVHMCAPSWMCSGF [Phage-3952]
006 PSMA Fab [3]
  Phage binding ELISA signal, Anti-PSMA Fab with PSMA antigen: 0.0825
006 PSMA Fab [4]
  Phage binding ELISA signal, Anti-PSMA Fab: 0.87

B7: Phage-3966 (peptide)
peptide: GSVFCIPTWMCEQS
notes: as for B1
Anti-PSMA Fab [5]
  phage binding ELISA signal (Anti-PSMA Fab with PSMA): 0.07
Anti-PSMA Fab [6]
  Phage binding ELISA signal, Anti-PSMA Fab: 0.813

B8: Phage-3934 (Peptide-180 library clone) (peptide)
peptide: DIVECRPRWMCDGF
notes: as for B2
PSMA Fab (006 PSMA Fab)
  Phage binding ELISA signal, Anti-PSMA Fab: 0.936

## TQVKCIPLWMCDGF [Phage-3947]
006 PSMA Fab [3]
  Phage binding ELISA signal, Anti-PSMA Fab with PSMA antigen: 0.0544
006 PSMA Fab [4]
  Phage binding ELISA signal, Anti-PSMA Fab: 0.885

## EIGACVPDWMCRGF [Phage-3968]
PSMA Fab [1]
  Phage binding ELISA signal, Anti-PSMA Fab in presence of PSMA antigen: 0.0694
PSMA Fab [2]
  Phage binding ELISA signal, Anti-PSMA Fab: 0.809

B9: Phage-3958 (peptide)
peptide: TAPWCQPRWMCDGF
notes: as for B1
Anti-PSMA Fab [5]
  phage binding ELISA signal (Anti-PSMA Fab with PSMA): 0.0701
Anti-PSMA Fab [6]
  Phage binding ELISA signal, Anti-PSMA Fab: 0.828

## LTVYCTPEWMCSGW [Phage-3948]
006 PSMA Fab [3]
  Phage binding ELISA signal, Anti-PSMA Fab with PSMA antigen: 0.0749
006 PSMA Fab [4]
  Phage binding ELISA signal, Anti-PSMA Fab: 0.882

B10: Phage-3932 (Peptide-180 library clone) (peptide)
peptide: LNVECVPQWMCDGF
notes: as for B2
PSMA Fab (006 PSMA Fab)
  Phage binding ELISA signal, Anti-PSMA Fab: 0.965

## EFRECRPPWMCQGL [Phage-3944]
006 PSMA Fab [3]
  Phage binding ELISA signal, Anti-PSMA Fab with PSMA antigen: 0.0789
006 PSMA Fab [4]
  Phage binding ELISA signal, Anti-PSMA Fab: 0.899

## TVRSCTPPWMCEGF [Phage-3951]
006 PSMA Fab [3]
  Phage binding ELISA signal, Anti-PSMA Fab with PSMA antigen: 0.0856
006 PSMA Fab [4]
  Phage binding ELISA signal, Anti-PSMA Fab: 0.871

## ILPRCEPYWMCTGL [Phage-3950]
006 PSMA Fab [3]
  Phage binding ELISA signal, Anti-PSMA Fab with PSMA antigen: 0.0634
006 PSMA Fab [4]
  Phage binding ELISA signal, Anti-PSMA Fab: 0.872

## STLLCTPEWMCFGM [Phage-3969]
PSMA Fab [1]
  Phage binding ELISA signal, Anti-PSMA Fab in presence of PSMA antigen: 0.0553
PSMA Fab [2]
  Phage binding ELISA signal, Anti-PSMA Fab: 0.789

B11: Phage-3933 (Peptide-180 library clone) (peptide)
peptide: YTQACTPSWMCHGF
notes: as for B2
PSMA Fab (006 PSMA Fab)
  Phage binding ELISA signal, Anti-PSMA Fab: 0.96

B12: Phage-3963 (peptide)
peptide: ISAECRPPWMCIGF
notes: as for B1
Anti-PSMA Fab [5]
  phage binding ELISA signal (Anti-PSMA Fab with PSMA): 0.0626
Anti-PSMA Fab [6]
  Phage binding ELISA signal, Anti-PSMA Fab: 0.815

B13: Phage-3954 (peptide)
peptide: FFQVCEPQWMCLGF
notes: as for B1
Anti-PSMA Fab [5]
  phage binding ELISA signal (Anti-PSMA Fab with PSMA): 0.0548
Anti-PSMA Fab [6]
  Phage binding ELISA signal, Anti-PSMA Fab: 0.854

B14: Phage-3959 (peptide)
peptide: AEMLCVPPWMCKAF
notes: as for B1
Anti-PSMA Fab [5]
  phage binding ELISA signal (Anti-PSMA Fab with PSMA): 0.0615
Anti-PSMA Fab [6]
  Phage binding ELISA signal, Anti-PSMA Fab: 0.823

B15: Phage-3961 (peptide)
peptide: LVSWCTPPWMCEGV
notes: as for B1
Anti-PSMA Fab [5]
  phage binding ELISA signal (Anti-PSMA Fab with PSMA): 0.131
Anti-PSMA Fab [6]
  Phage binding ELISA signal, Anti-PSMA Fab: 0.818

B16: Phage-3953 (peptide)
peptide: GLPQCVPPWMCDGF
notes: as for B1
Anti-PSMA Fab [5]
  phage binding ELISA signal (Anti-PSMA Fab with PSMA): 0.056
Anti-PSMA Fab [6]
  Phage binding ELISA signal, Anti-PSMA Fab: 0.864

B17: Phage-3935 (Peptide-180 library clone) (peptide)
peptide: PGFWCQPKWMCEGF
notes: as for B2
PSMA Fab (006 PSMA Fab)
  Phage binding ELISA signal, Anti-PSMA Fab: 0.93

B18: Phage-3965 (peptide)
peptide: MATMCVPQWMCAGF
notes: as for B1
Anti-PSMA Fab [5]
  phage binding ELISA signal (Anti-PSMA Fab with PSMA): 0.141
Anti-PSMA Fab [6]
  Phage binding ELISA signal, Anti-PSMA Fab: 0.814

B19: Phage-3962 (peptide)
peptide: FDGWCVPAWMCYPF
notes: as for B1
Anti-PSMA Fab [5]
  phage binding ELISA signal (Anti-PSMA Fab with PSMA): 0.0796
Anti-PSMA Fab [6]
  Phage binding ELISA signal, Anti-PSMA Fab: 0.816

B20: Phage-3937 (Peptide-180 library clone) (peptide)
peptide: LTPVCRPAWMCLEL
notes: as for B2
PSMA Fab (006 PSMA Fab)
  Phage binding ELISA signal, Anti-PSMA Fab: 0.922

## YARECIPQWMCGGF [Phage-3939]
006 PSMA Fab [3]
  Phage binding ELISA signal, Anti-PSMA Fab with PSMA antigen: 0.0765
006 PSMA Fab [4]
  Phage binding ELISA signal, Anti-PSMA Fab: 0.918

## VQTRCVPAWMCDGF [Phage-3971]
PSMA Fab [1]
  Phage binding ELISA signal, Anti-PSMA Fab in presence of PSMA antigen: 0.0744
PSMA Fab [2]
  Phage binding ELISA signal, Anti-PSMA Fab: 0.782

## GDIQCRPLWMCDGL [Phage-3942]
006 PSMA Fab [3]
  Phage binding ELISA signal, Anti-PSMA Fab with PSMA antigen: 0.128
006 PSMA Fab [4]
  Phage binding ELISA signal, Anti-PSMA Fab: 0.907

## GGVMCRPMWMCAGF [Phage-3967]
PSMA Fab [1]
  Phage binding ELISA signal, Anti-PSMA Fab in presence of PSMA antigen: 0.0836
PSMA Fab [2]
  Phage binding ELISA signal, Anti-PSMA Fab: 0.81

## GWVGCVPLWMCEGF [Phage-3949]
006 PSMA Fab [3]
  Phage binding ELISA signal, Anti-PSMA Fab with PSMA antigen: 0.0698
006 PSMA Fab [4]
  Phage binding ELISA signal, Anti-PSMA Fab: 0.878

## LVRMCQPPWMCDGF [Phage-3941]
006 PSMA Fab [3]
  Phage binding ELISA signal, Anti-PSMA Fab with PSMA antigen: 0.0699
006 PSMA Fab [4]
  Phage binding ELISA signal, Anti-PSMA Fab: 0.912

B21: Phage-3956 (peptide)
peptide: DVLMCKPEWMCLGY
notes: as for B1
Anti-PSMA Fab [5]
  phage binding ELISA signal (Anti-PSMA Fab with PSMA): 0.0628
Anti-PSMA Fab [6]
  Phage binding ELISA signal, Anti-PSMA Fab: 0.837

## PLTSCVPQWMCYGF [Phage-3940]
006 PSMA Fab [3]
  Phage binding ELISA signal, Anti-PSMA Fab with PSMA antigen: 0.0873
006 PSMA Fab [4]
  Phage binding ELISA signal, Anti-PSMA Fab: 0.913

## STMSCVPSWMCLGF [Phage-3946]
006 PSMA Fab [3]
  Phage binding ELISA signal, Anti-PSMA Fab with PSMA antigen: 0.0614
006 PSMA Fab [4]
  Phage binding ELISA signal, Anti-PSMA Fab: 0.885

## DARLCTPLWMCTGF [Phage-3972]
PSMA Fab [1]
  Phage binding ELISA signal, Anti-PSMA Fab in presence of PSMA antigen: 0.0622
PSMA Fab [2]
  Phage binding ELISA signal, Anti-PSMA Fab: 0.781

B22: Phage-3960 (peptide)
peptide: EGGYCVPTWMCSGF
notes: as for B1
Anti-PSMA Fab [5]
  phage binding ELISA signal (Anti-PSMA Fab with PSMA): 0.0786
Anti-PSMA Fab [6]
  Phage binding ELISA signal, Anti-PSMA Fab: 0.822

Reference: patent publication US20260242478A1 (published 2026)
